In assay [1] the target is human LILRB4 (human) (UniProt Q8NHJ6). The assay can be described thus: cell-based or functional assay.
Assay [2] shares this target. The assay can be described thus: FACS, 293F-hLILRB4 cells. On the technique in general: A flow cytometer gives signals particle by particle.
Assay [3] deals with cynomolgus (Macaca fascicularis) LILRB4 (cynomolgus (Macaca fascicularis)). The assay can be described thus: FACS, CHO-S-cynoLILRB4 cells.
In assay [4] the target is human LILRA6 protein (human) (UniProt Q6PI73). Nature of the assay: ELISA, LILRA6 protein. (An ELISA detects its analyte on a solid surface through an enzyme-linked reagent.)
Chain of human LILRA6 protein (human) (Q6PI73 24-447 limits assumed): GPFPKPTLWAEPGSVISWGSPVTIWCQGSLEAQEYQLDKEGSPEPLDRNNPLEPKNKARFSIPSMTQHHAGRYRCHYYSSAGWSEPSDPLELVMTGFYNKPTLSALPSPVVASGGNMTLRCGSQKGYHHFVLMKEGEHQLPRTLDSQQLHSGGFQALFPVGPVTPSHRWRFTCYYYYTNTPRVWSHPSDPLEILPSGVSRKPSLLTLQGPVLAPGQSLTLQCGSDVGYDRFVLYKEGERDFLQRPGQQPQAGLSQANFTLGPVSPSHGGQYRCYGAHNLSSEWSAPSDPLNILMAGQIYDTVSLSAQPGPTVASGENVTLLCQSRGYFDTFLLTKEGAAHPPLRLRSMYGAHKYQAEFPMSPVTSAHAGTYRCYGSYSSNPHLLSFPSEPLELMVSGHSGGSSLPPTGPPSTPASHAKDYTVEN

Chain of human LILRB4 (human) (Q8NHJ6 22-448): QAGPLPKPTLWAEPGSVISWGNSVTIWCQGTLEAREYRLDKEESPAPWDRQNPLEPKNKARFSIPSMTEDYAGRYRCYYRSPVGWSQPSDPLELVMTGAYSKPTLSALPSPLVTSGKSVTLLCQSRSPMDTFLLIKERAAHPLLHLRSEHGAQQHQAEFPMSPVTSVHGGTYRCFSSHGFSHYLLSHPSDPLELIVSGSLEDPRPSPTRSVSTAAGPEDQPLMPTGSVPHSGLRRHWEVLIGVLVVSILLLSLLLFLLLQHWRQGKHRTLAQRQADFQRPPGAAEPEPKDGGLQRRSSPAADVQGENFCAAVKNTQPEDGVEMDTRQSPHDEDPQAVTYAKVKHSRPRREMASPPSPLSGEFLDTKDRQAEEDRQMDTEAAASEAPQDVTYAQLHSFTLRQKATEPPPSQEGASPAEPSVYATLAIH

B1: NGM831 (antibody, V domains shown)
VH: EVQLQQSGPEVKPGASVKISCKASGYTFTDYNMDWVKQSHGKSEWIGYIYPSNGGTGYNQKFKSKATLTVDKSSNTAYMELHSLTSEDSAVYYCARVPYYDYLYYYAMDYWGQGTSVTVSS
VL: QIVLSQSPAILSASPGEKVTMACRASSSVSFMHWYQQKPGSSPQPWIYATSNLASGVPARFSGSGSGTSYSLTISRVEAEDAATYYCQQWSTNPYMYTFGGGTKLEIK
As for B1, in assay [1], the ADCP (%) at 133.3 nM, macrophages and MV-4-11 cells was 6.37%; the EC50 (nM), ADCC on THP-1 cells was found to be 488 nM; the FcγR stimulation (TNF-α, pg/mL) came to 261 pg/mL; the Fold change (Compared to isotype) is 8.26 fold. For the same molecule, the Max cell cytotoxicity (%), ADCC on THP-1 cells in assay [1] was -6.89%. In assay [2], this molecule showed an EC50 of 4.39 nM and a Max MFI of 30400 MFI. In addition, in assay [3], the Max MFI amounted to 822 MFI. The ELISA(OD450) in assay [4] came out at 1.32 OD450.

B2: ch48-E11-H7-B5 (antibody, V domains shown)
VH: EVQLVESGGGLVKPGGSLKLSCAASGFTFSSYAMSWVRQTPEKRLEWVASITIGDDTYYPDSVKGRFTISRDHAKNILYLQVSSLRSEDTAMYSCARGVNSYGSSYRYFDVWGAGTTVTVSS
VL: DIVMTQSHKFMSTSVGDRVSITCKASQDVSTAVAWYQQKPGQSPKLLIYWASTRHTGVPDRFTGSGSGTDYTLTISSVQAEDLALYYCQQHYSIPFTFGAGTKLEK
B2 registered an ELISA(OD450) in assay [4] of 0.302 OD450.

Broadly, the EC50 is the concentration at which the effect is half-maximal. Read a high EC50 as lower potency in that assay.

Source of the values: US20250361295A1.
